Source: patent US20250353901A1 (ON TARGET MOLECULES BIOTECH, published 2025)

Target: T1, synthetic peptide HRCLQQLCCRKKPG
T1 construct: Variant of P2X7 residues 491-504, used as the counter-screen peptide; also called the wild type SNP at position 496 which is Q
T1 peptide: HRCLQQLCCRKKPG
Assay: in-vitro cross-reaction of hybridoma monoclonal antibodies against the synthetic peptide
From the text: For the generation of monoclonal antibodies, hybridoma cell lines expressing the desired antibody were produced. Techniques for the production of monoclonal antibodies are well known in the art. Animals were presented with the carboxyl-terminal antigen sequence […] conjugated to KHL. Murine hybridoma cells were produced and screened according to standard protocols. Monoclonal antibodies harvested after clonal selection of the hybridomas expressed from the variable regions of the monoclonal antibodies raised against the antigen, were tested for their capacity to bind this antigen.

binding result: no binding
B1: Clone 3: 6H5.C10 Isotype Ig1 k (antibody, V domains shown)
VH: QVTLKESGPGILQPSQTLSLTCSFSGFSLSTFGMGVGWIRQPSGKGLEWLAHIWWDDYKYYNPALKSRLTISKDTSKNQVFLKIANVDTADTATYYCARISYYGSSYLDYWGQGTTLTVSS
VL: DVVMTQTPLSLPVSLGDQASISCRSSQSLVHSNGNTYLHWYLQKPGQSPKLLIYKVSNRFSGVPDRFSGSGSGTDFTLKISRVEAEDLGVYFCSQTTHVPYTFGGGTKLEIKR
notes: Murine hybridoma monoclonal antibody, isotype printed as 'Ig1 k'
